# Assay results from the supplement of paper PMC12338614.
# ± gives the uncertainty stated by the source.
# B1: library; numbered along this chain (parent)
# chain: MEVVDPQQLGMFTEGELMSVGMDTFIHRIDSTEVIYQPRRKRAKLIGKYLMGDLLGEGSYGKVKEVLDSETLCRRAVKILKKKKLRRIPNGEANVKKEIQLLRRLRHKNVIQLVDVLYNEEKQKMYMVMEYCVCGMQEMLDSVPEKRFPVCQAHGYFCQLIDGLEYLHSQGIVHKDIKPGNLLLTTGGTLKISDLGVAEALHPFAADDTCRTSQGSPAFQPPEIANGLDTFSGFKVDIWSAGVTLYNITTGLYPFEGDNIYKLFENIGKGSYAIPGDCGPPLSDLLKGMLEYEPAKRFSIRQIRQHSWFRKKHPPAEAPVPIPPSPDTKDRWRSMTVVPYLEDLHGADEDEDLFDIEDDIIYTQDFTVPGQVPEEEASHNGQRRGLPKAVCMNGTEAAQLSTKSRAEGRAPNPARKACSASSKIRRLSACKQQ
# Variants of: B1
# Assay: STK11 functional score (HeLa growth suppression), rescaled enrichment; synonymous median = 1, nonsense median = 0 (normalised score)
# Details: with HeLa; variant type: missense
# Method: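 Deep mutational scan (TileSeq/POPCode codon randomisation) of full-length codon-optimised STK11 cDNA integrated at a Bxb1 landing pad (AAVS1) in HeLa cells. Restoring functional STK11 suppresses HeLa proliferation. Variant frequencies were measured by NGS before and after about two weeks of growth. The error-corrected enrichment log-ratio was rescaled so that synonymous median = 1 and nonsense median = 0, scores above 1 were compressed, and codon-level and three biological replicate scores were combined; error is the bootstrapped standard error. Scale: synonymous median = 1, nonsense median = 0; below 0.5 = damaging.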
row,Variant,STK11 functional score
1,V95L,0.889 ± 0.12
2,V95C,0.913 ± 0.28
3,V95R,1.02 ± 0.16
4,V95S,1.4 ± 0.18
5,V95D,1.5 ± 0.27
6,V95A,1.28 ± 0.19
7,V95W,0.452 ± 0.08
8,V95F,0.945 ± 0.26
9,V95G,0.326 ± 0.15
10,V95Y,1.55 ± 0.17
11,V95E,0.927 ± 0.43
12,V95T,1.62 ± 0.22
13,V95H,1.64 ± 0.19
14,V95N,1.6 ± 0.14
15,V95P,1.65 ± 0.3
16,V95Q,1.46 ± 0.45
17,L102W,1.2 ± 0.079
18,L102F,1.11 ± 0.17
19,L102Y,1.2 ± 0.37
20,L102M,0.857 ± 0.19
21,L102D,0.469 ± 0.2
22,L102A,0.777 ± 0.23
23,L102T,0.0689 ± 0.37
24,L102V,0.912 ± 0.083

row,Variant,STK11 functional score
1,L102R,0.466 ± 0.086
2,L102E,1.51 ± 0.11
3,L102S,0.447 ± 0.3
4,L102H,1.61 ± 0.3
5,L102G,1.07 ± 0.08
6,L102Q,1.48 ± 0.65
7,L102I,1.26 ± 0.2
8,A93P,1.68 ± 0.42
9,A93W,1.63 ± 0.1
10,A93G,0.685 ± 0.085
11,A93S,0.907 ± 0.2
12,A93L,1.12 ± 0.26
13,A93V,0.101 ± 0.08
14,A93H,1.66 ± 0.18
15,A93R,1.6 ± 0.19
16,L101P,0.045 ± 0.083
17,L101R,1.25 ± 0.2
18,L101Y,1.21 ± 0.079
19,L101I,1.06 ± 0.38
20,L101Q,0.894 ± 1
21,L101S,1.43 ± 0.37
22,L101M,1.62 ± 0.22
23,L101W,-0.0513 ± 0.12
24,L101V,0.836 ± 0.1

row,Variant,STK11 functional score
1,R104G,0.389 ± 0.56
2,R104D,0.685 ± 0.19
3,R104F,1.19 ± 0.3
4,R104I,1.23 ± 0.25
5,R104L,1.4 ± 0.2
6,R104K,1.31 ± 0.67
7,K97G,0.699 ± 0.38
8,K97S,0.724 ± 0.17
9,K97L,0.76 ± 0.24
10,K97N,1.21 ± 0.42
11,K97V,0.998 ± 0.2
12,K97T,1.32 ± 0.48
13,K97E,1.42 ± 0.45
14,K97A,1.47 ± 0.27
15,K97D,1.27 ± 0.21
16,K97C,0.937 ± 0.18
17,K97W,0.46 ± 0.082
18,K97P,1.1 ± 0.4
19,K97Q,0.688 ± 0.72
20,E98S,1.49 ± 0.16
21,E98K,1.12 ± 0.67
22,E98L,0.433 ± 0.22
23,E98Y,0.182 ± 0.18
24,E98R,0.172 ± 0.083

row,Variant,STK11 functional score
1,E98Q,0.273 ± 0.089
2,E98W,0.16 ± 0.15
3,E98H,0.617 ± 0.08
4,E98V,0.117 ± 0.083
5,E98G,0.397 ± 0.099
6,E98T,0.259 ± 0.093
7,E98I,0.496 ± 0.18
8,E98A,0.326 ± 0.083
9,E98M,0.133 ± 0.46
10,Q100W,0.696 ± 0.17
11,Q100E,1.25 ± 0.76
12,Q100Y,0.248 ± 0.19
13,Q100G,1.17 ± 0.14
14,Q100L,0.857 ± 0.23
15,Q100D,1.57 ± 0.19
16,Q100T,1.3 ± 0.43
17,Q100P,0.999 ± 0.14
18,Q100R,1.34 ± 0.13
19,Q100S,1.1 ± 0.18
20,Q100A,0.571 ± 0.42
21,Q100V,1.39 ± 0.2
22,Q100I,1.64 ± 0.19
23,Q100F,0.976 ± 0.19
24,Q100H,1.28 ± 0.4

row,Variant,STK11 functional score
1,N94R,1.37 ± 0.14
2,N94D,1.31 ± 0.14
3,N94S,1.27 ± 0.34
4,N94T,1.27 ± 0.18
5,N94E,0.862 ± 0.32
6,N94A,0.173 ± 0.19
7,N94Y,0.568 ± 0.34
8,N94H,1.35 ± 0.3
9,N94P,1.21 ± 0.64
10,N94C,1.1 ± 0.2
11,N94L,0.89 ± 0.17
12,N94G,0.953 ± 0.18
13,N94W,0.162 ± 0.14
14,N94F,0.728 ± 0.22
15,N94M,0.437 ± 0.077
16,N94V,0.637 ± 0.13
17,N94Q,1.2 ± 0.65
18,N94I,1.14 ± 0.21
19,E92T,1.62 ± 0.18
20,E92R,1.64 ± 0.4
21,E92S,0.979 ± 0.19
22,E92V,1.02 ± 0.09
23,E92W,1.03 ± 0.61
24,E92Q,1.16 ± 0.51

row,Variant,STK11 functional score
1,E92Y,1.32 ± 0.26
2,R103C,1.05 ± 0.22
3,R103S,1.02 ± 0.11
4,R103Q,1.27 ± 0.41
5,R103V,0.764 ± 0.15
6,R103A,1.42 ± 0.15
7,R103Y,1.15 ± 0.18
8,R103W,0.732 ± 0.31
9,R103P,0.985 ± 0.18
10,R103T,1.32 ± 0.27
11,R103L,0.918 ± 0.12
12,R103I,1 ± 0.15
13,R103E,1.68 ± 0.18
14,R103H,1.6 ± 0.32
15,R103K,1.18 ± 0.77
16,R103G,0.667 ± 0.098
17,K96R,1.18 ± 0.16
18,K96G,1.31 ± 0.19
19,K96F,0.801 ± 0.17
20,K96D,1.27 ± 0.25
21,K96S,1.11 ± 0.12
22,K96W,0.729 ± 0.42
23,K96Y,1.23 ± 0.31
24,K96P,0.38 ± 0.12

row,Variant,STK11 functional score
1,K96N,1.14 ± 0.35
2,K96I,1.08 ± 0.17
3,K96E,0.384 ± 0.32
4,K96Q,0.724 ± 0.15
5,K96H,1.33 ± 0.072
6,K96T,1.05 ± 0.082
7,K96L,0.614 ± 0.26
8,K96V,0.667 ± 0.17
9,I99Y,0.0269 ± 0.081
10,I99S,0.869 ± 0.37
11,I99W,0.631 ± 0.11
12,I99T,1.45 ± 0.43
13,I99Q,0.527 ± 0.62
14,I99C,1.57 ± 0.18
15,I99D,0.335 ± 0.1
16,I99F,1.64 ± 0.16
17,I99G,0.767 ± 0.3
18,I99P,0.0871 ± 0.35
19,I99E,1.65 ± 0.16
20,I99V,0.876 ± 0.11
21,I99R,0.708 ± 0.16
22,I99M,1.07 ± 0.36
23,I99L,0.855 ± 0.1
